# Assay results published in the domain aggregation screens of Martell et al. (2025).
# Assay: soluble fraction after stress (log2 fold change); higher = more stays soluble; pooled small domains, quantitative proteomics
# Conditions: stress: pH 4
# In short: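 High-throughput quantitative proteomics was run on pooled custom libraries of small protein domains following pH 4 stress. Fold changes are on a log2 scale; higher values mean more of a domain remained soluble. The fold change in soluble amount is taken as a measure of aggregation propensity.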
row,Sequence,soluble fraction (log2)
1,HMSPLALLTPRELDILRAMTAGASNKEIARQFAIAETTVKIHVQHILRKLDVTTRVHAAVMASESGL,-1.09
2,HMGRPTLEQLLDRAQAMGVPRERYAAYADRRWGRGWRVNPHGRGRAWDELDRYRNDPAGYLDKIEVELNQL,-0.0109
3,HMDENMQRYNTMEEIKKEFPYAEDTVRKLIAMGAIRGGGKVDANGDPADMDLSRDMLRMMVFNDRAGAYG,-0.761
4,HMSGTMYATAEVNVRSTYSSDGTIYGTLSKGTAVEITGTTDNGWVRVKYNGTTAYVYADYLSWKAP,0.144
5,HMTSRWEIGYNVAKKYYDEHGNLDVERAVYDNFELKKWLNTQRYKNSAGTLAEKYKIKLDELGMNWER,-0.00494
6,HMTSLGLEGLVNTTAIATSDLRPSGWALAGERKIFVVSEGEFIDNGDKIRILTVDGNRIVVRKETNK,-0.189
7,HMSKIRTFRVKTVAVDQAYQVLKDYSPIKISTESNAVIIDLDESKTPAEIAGYLEKNGIKVDNIEVIAESE,-0.148
8,HMEMLQRFIFLENVSSTQVESAIKELHPNLNLKRVKLSFPGADTVLLKGPKQDLELAEELIRHLDRSE,-0.609
9,HMRLGQLQSVEEPKFIEVHSGKQGDIGEQTIVEYEIDAKYATGDATINLKLLFRDGLFEIYNFNFSSEALL,-0.259
10,HMSDESALLELVKQIIADNPKAVEEIRAGKEKAMGFLIGQAMKASRGSANPQIISRLVREQLG,0.0495
11,HMSEIKDRLREARRNKGLSQAGLSKLLGVSQASIAAIESGRNKRPTNLVSIAKALDVSPYWLETGK,0.0733
12,HMYEINEIIRERRLKKGLTQAQVAKYLGVSAPAVNKWEKGTTYPDLVLLPALARLLDTDLTTLLSF,-1.02
13,HMIDIDNLEKAAILLLSMGTEAAAKVMQKLSRDEVQRLISKMASLSGVSSIEAKWTLQQFFNQYREQSG,-0.832
14,HMVLVKFEWTPPDARILVDDHPVEARDKEMELPEGTHHVQALAPRGSGYESTVTDIEVRQGMDPVRIAL,0.115
15,HMFIEHSKYKLSFKYNQLGKISNVINSNNGIIMDKHFDQNITLLAKLTENTFQEIIKHFPTIIIKRL,-0.539
16,HMSEVSEILTRARFFAGVKTDAELSTLLKIPYGTLIGWKTRKNIPESRIAQMALILGIRRDTLIPA,-0.11
17,HMEDINAVLAENLRRLRESRRLSLDAVARLTGVSKSMLGQIERGEVNPTVSTMWKIAGGLKVNFTALFRRE,≥ 0.43
18,HMIVDINDVRIDKYIADNTDYSRNLILNLIKNGDILVNDSKIKPSYKVKQGDKITINNVKTD,-0.284
19,HMKMLSIQRREAIRALLLEKESITIAEVMEKFQISVETARRDFDALADEGFLNKVYGGATLKK,-1.24
20,HMRNMTDYLTIVRAVYGGLSQRQAATTYHVSRNTVSLLIRHAKNQGWLTVEDLSRADAAAFSPA,-0.0738
21,HMEISLEAKMAEVREQVRGLAGINFRTLLEMQASRSNIIVTFLAILELMKIGAIQIRQEEIFGEIIIDSRD,-0.28
22,HMFPDLSPEQQRIVDVLTKSNDLQLNQLSVKTGIPIGDITSILFQMEMMGVVKPMAGGNYHLL,-0.0768
23,HMQDNPELVARIEKAAARGTSSMSDWERSFMGSLLDSAKKWGRLTAKQHEVFQRIEKKTDPAHQAAVS,0.0292
24,HMAFDDAHYKDMITSYLKKFKKGNRSEIENLIIPKLSEVLVEKQKKDKVKNLLQALRKDNQIRLKGKYWYL,0.196
25,HMESRMTYLQKTKLATENLDAKLIDHQQWVAEVLGEDYRGVYSDEYLRRAAKVFAIFVNNLDD,-1.41
26,HMDTNAIIGLRIKNLRTEKKYTLKYLSENTGLSIGFLSQLERGMTSIAIDSLDKISKVLDVELSSFFT,-0.14

row,Sequence,soluble fraction (log2)
1,HMNVAELIEGHEAEIAEVLKEFSLLYLMRLADELGEMTKSSSGNGPFQVLKGLVYEEIARRG,-0.416
2,HMENITTILRSIKNEIKKNSTFVGDDFVNQARSMNQGQIKEKSIYGHGTKKEIEELRDEGVDVLNIPWIT,0.0184
3,HMLKHEEIQEYIKEQINSGTWKPKAKLPSLRDMSELFSTSIGTVLTAYSALEKKHIIYSIPRSGYYVLG,-0.334
4,HMQSLIVPVPKPEDDPVYKDGIKQDPVEVVSIWLGRDYLNMILNLKVSTGKGHTFGIVEDVS,-0.383
5,HMKINKQHLAFQIFGIRAKLGLSMEQFGELLGANKSSVSGWERGTVVPSSQRLKKIAELGKISLAELLTP,0.276
6,HMKSSLAKNLETLMQERQISQTRLSKISGVSQSYIFKILNDQIKKPSLDTLEKLATALDSTVAQLNH,0.191
7,HMADGEWAEMQRQLTAAGLLVVGRAAQERIQRLSDISPLIEAAQRSNVVMLSERTVDEVLTLVPT,-0.468
8,HMKQLNKRQNDILSFAEKQGYVSVENLAKLFSVTQQTIRRDINYLSDNELLVRTHGGAYYSS,-0.0112
9,HMRDYKTALQEWVQRTPGQPIAYRLVDELGPDHARVFVMEVTVGGQSAGQGRGRTKKEAEQLAARAALEKL,-0.0915
10,HMTGMEKFLTIPSIRESTAAFEREYLIHYLDENAWQVSKTAAAIGIERTTLYKKMKQLGIVPIEE,-0.166
11,HMEILVSTRRHEIASLLSRKKRVSFFELFPEKTKEYVVATFLAILEMAKAREVNITQEDTFDEIIVEEA,-1.09
12,HMSDNLSASERKALSHMEGMESVRSSEVADLLGMSQRGAQKLLNRLVDKGLASSFGANRNRRYSVE,0.111
13,HMSMSLQFLSRRIRLQREKRGLKQHDIAHALQISPQAVSKWERGENAPDIALLRPLAGLLGVSIDWLMGGD,-1.7
14,HMLDLPVRTINGRQYYYYEVRNRETVYGLSKRLGVTREEIVRYNPSMADGLKRGAILYFPVDEFSDRI,-0.0139
15,HMLDEPPVSQTLTTYDREHMALYLRLLDSARDGADWREAVQILFGLDPTRDPLRSRHVHDTHLARARWM,-0.452
16,HMSTSLIEFTIDRNNSIANKMIMDANIPEDILVVMIKRNGDVFVPNGSTKILPGDILVLSGNKLKY,-0.785
17,HMTIPNGTVVNGTVLEAREAGAYLVRVAGQTLTAQANLPLLVGQHFRAVWDSSGDIPVLRLSDAEQALLGK,-0.121
18,HMIQTMVVTDLKNGTIFKENGHPFIVLKYEHIKVSRGSAQVRVKMKNLITGQVLEKSWQSTAHVDDT,0.186
19,HMSDAIQLEQKIGLEAIEWYLALSEQTDDKLLYQQWQSWLAADPQHQLAWSRIEQVNHGLNTL,-0.9
20,HMIDDPTAVILRLVSEKQVIRRDDVVKALSVTPQKAYRLLKTMTTGGLLTRSGARRTTVYGLPDARER,0.22
21,HMALALDDLFDRYEQLQDQSLGDKTEEGQELRAMIRAYIEQEGLSVRVTRSTTNRELLELIEQEMEG,-0.703
22,HMEELIIQEELANKRLDIAISLLFPELTRAHAQKLIKEGSVLVDGKPRKASYPLTAGKRLSVTLPEPE,-0.0497
23,HMVTDVDELEKLIQKVLDSNSSQVDEYRQGKEKVFGFFVGAVMKLTKGQADPDVVNQLLKEKLSGRK,-0.0516
24,HMNSNTIIFSQFLSEVDNGRVTQVQIQGNNIKGTLSNGKDFITYAPNDPNLIEKLTSKGVSISASPID,0.217
25,HMPSGRIRWFDAKKGYGFIAGDDGKDVFLPQTALPQGVRNPRKGAKVEYSVIEGNRGQVAMGVTMV,0.0307
26,HMNKVDEEKNAELVSTIQNKFSDVSAATKKKVKAFMAEHDIPNFKNADEIPTANLEAIVAMLNED,0.22

row,Sequence,soluble fraction (log2)
1,HMNDLDSLWDIWENLNERGIGDKSEEGQELRDAIREFIDTNELNVRVTRNKTNEDLLTDIEDALEVAKNS,-2.07
2,HMEQFRENIVRIYMEIDDYENGAKFLEMGNNRDASFYELAGDFYKYFGENELANENYDLAISA,-1.39
3,HMPHFFISTSDVNQDIITVSDKENFHHIARVLRSKVGETLLLVDENRTQYKVVIQNIDSKSITTKVVETLK,-0.697
4,HMGKTKFTEMSALELKAYAELNNNSMHWVYRMLYIGGGDVGFRKGMKELGYSGKFIWMTLERLKKS,-0.583
5,HMAVLFFVKRGERILGPTRLADLFQHAASGRLRANDLVGESPKGPWLPARQLDELEDAWASSRDATEAAAA,-0.0753
6,HMPKNVEVPNVVGLSLPMAKLRLTQLGLHIVVRDSVWSETGQPNTILDQDPQPGKKIKPESTVYVKVN,≥ 0.43
7,HMEFNQAVQDVNELSMQYAKSDVLWPEFEPKVLAFAKNELSQMPPNQWKFALQTFYNGLKQAA,-0.0767
8,HMFMSKTAMVAIISEADKYGLFNIPEGLSVEKTADEIFEGHIEVDFDKLKNELDFVYKNEALEKQFQEN,-1
9,HMDNWLSGLAVEADRMILTQPGEVFDRLSRAFEATLIRRALASTGGRRIEAAHLLGIGRNTITRKIQDLGL,-1.45
10,HMYMKTITEQFGERLKKIRTQKSLSQEQLSYLADIDRSYISDVERGARNISLENIYKLASALNIPPYLVLL,-0.344
11,HMKFYKMIDESDEKIENPEIMIFQIIELVSSTTYSAIINKEPVDVETLKPYLYQTIRTIIINHQS,-0.582
12,HMLNVNDVIARNVRAARERKKLTLDGAAELTGVSRSMLAQIEKGEVNPTISVVWKIANGFKVSFTSLVEPQ,-0.0104
13,HMSVTVPDVKRMQAEDAKALLSRYRLRSEVIDSVYVDNIPRGAVVEQIPRENSSVKENRIVFLTINSN,-0.546
14,HMTTHEQVAILRRELNGLVGAWHHRTGQAHGVTHSKLRKELGGPPAAVASAAQLSARIEKIRQWAT,-0.0306
15,HMKIQISGSQRIDENVVVKVAGLSFPQSLLSLEPGQIESKLMQELPVQEVSVQRRLLPPGLDIQLVE,-0.246
16,HMGVRDIRIFERNNSFFVNAEIRGEAQLSVPITRTDYQLFKENKIDALSLVEKYYAEELNASNEMK,0.155
17,HMSGAQIQQLLESRAPQPGMNPDMIVRRKTYMNNVFNALKGALLRVANGSSPEEVKTEVDAAIQVDPDKL,-0.151
18,HMTKEEFLYELKKELSALDSAEATAYNLRYYSDYIDAEIAKGRSEQEVLDELGNPRWLVNSIKESG,-0.521
19,HMDEFAGSAKPLADGAAPAGYDVKGNKDSMKYHEPGGRWYDATVAEVWFKTAADAEAAGFVKAGA,-0.266
20,HMGTGIKQVNVVSVIGQDEETAKTTLTNLGLKVNVTYATSTSDNGKVTKQSIDAGKTVDEGTSVTITVNKV,-0.269
21,HMIETIIGAEGKVLETIDNFNQKGVVALAGKEWTARSADASIIPEGAKVSVVEISGVKLIVTQN,-0.24
22,HMNQDQDLSRIKGIGPEMVDRLHAQGVETLEQIAAMQMEQLKKLDQQISGNGKAVREQWAEQAKQLLTT,-0.331
23,HMIDELNVGDIRFYLNRYGKEIQIEIIRIGDDGSVYARTMADNALFRVPEARLKNIGEKVPAEEVQRG,-0.348
24,HMDSLNWVEKIINTLPEQQRLIIQMRDIEQYEFAEIAKILEMNETAIRVALSRARKTIREFMIKTH,≥ 0.43
